Patent US20130129725A1 (published 2013)

Each binder was assayed against biotinylated hu-β-klotho (UniProt Q86Z14 53-996, biotinylated (sites not given)) (assay: Octet BLI).
Sequence of biotinylated hu-β-klotho (Q86Z14 53-996): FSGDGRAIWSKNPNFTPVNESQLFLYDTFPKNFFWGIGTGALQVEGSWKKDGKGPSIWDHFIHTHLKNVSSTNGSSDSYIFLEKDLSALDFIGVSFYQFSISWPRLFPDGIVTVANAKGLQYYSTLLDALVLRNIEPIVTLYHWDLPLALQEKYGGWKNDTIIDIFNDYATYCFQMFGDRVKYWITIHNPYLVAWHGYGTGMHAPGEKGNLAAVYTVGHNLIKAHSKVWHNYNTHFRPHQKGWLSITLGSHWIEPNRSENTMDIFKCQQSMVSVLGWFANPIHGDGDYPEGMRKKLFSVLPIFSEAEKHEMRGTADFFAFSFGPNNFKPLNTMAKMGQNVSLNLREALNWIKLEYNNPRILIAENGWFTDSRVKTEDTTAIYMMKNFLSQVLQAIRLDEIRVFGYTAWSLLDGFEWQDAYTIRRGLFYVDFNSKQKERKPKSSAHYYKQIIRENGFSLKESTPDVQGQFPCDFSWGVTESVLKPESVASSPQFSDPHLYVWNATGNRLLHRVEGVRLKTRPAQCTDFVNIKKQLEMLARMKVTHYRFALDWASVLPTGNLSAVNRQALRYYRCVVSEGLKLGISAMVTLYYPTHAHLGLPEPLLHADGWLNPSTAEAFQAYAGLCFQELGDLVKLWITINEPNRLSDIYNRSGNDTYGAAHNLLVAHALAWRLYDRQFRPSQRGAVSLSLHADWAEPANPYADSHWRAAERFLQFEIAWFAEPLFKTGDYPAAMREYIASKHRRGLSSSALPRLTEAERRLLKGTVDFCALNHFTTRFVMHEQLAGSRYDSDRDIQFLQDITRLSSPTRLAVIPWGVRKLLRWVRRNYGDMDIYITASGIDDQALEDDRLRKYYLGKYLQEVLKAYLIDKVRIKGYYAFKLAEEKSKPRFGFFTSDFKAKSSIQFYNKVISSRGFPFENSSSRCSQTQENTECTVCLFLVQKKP

Binder	Kd [nM]
3B4 (antibody, V domains shown) VH: QVQLVQSGAEVKKPGASVKVSCKASGYTFTAYYMHWVRQAPGQGLEWMGWINPNSGGTNSAQKFQGRVTMTRDTSIRTAYMELSWLRSDDTAVYYCARDATSGWFDIWGQGTPVTVSS VL: DIVMTQTPLSSPVTLGQPASISCRSSQSLVHYDGNTYLSWLQQRPGQPPRLLIYKISNRFSGVPDRFSGSGAGTDFTLKISRVEAEDVGIYYCMQALEFPWTFGQGTKVEIKR	6.08
10H3 (antibody, V domains shown) VH: QVQLVQSGAEVRKPGASVKVSCKASGYTFTAYYMHWVRQAPGQGLEWMGWINPYSGGTNSAQKFQGRVTMTRDTSISTAYMELSWLRSDDTAVYYCARDATSGWFDFWGQGTLVTVSS VL: DIVMTQTPLSSPVTLGQPASISCRSSQSLVHYDGNTYLSWLQQRPGQPPRLLIYKISNRFSGVPDRFSGSGAGTDFTLKISRVAAEDVGIYYCMQALEFPWTFGQGTKVEIKR	0.563
9D10 (antibody, V domains shown) VH: QVQLVESGGGVVQPGRSLRLSCAASGFTFRSYGMHWVRQAPGKGLEWVAVIWYDGRNEYYADSVKGRFTISRDNSKNTLYLRMNSLRAEDTAVYYCARDHPVAGTSFDYWGQGTLVTVSS VL: QSVLTQPPSVSAAPGQKVTISCSGSSSNIGNNYVSWYQQLPGTAPKLLIYDNNRRPSGIPDRFSGSKSGTSATLGITGLQTGDEADYYCGTWDSSLSAVVFGGGTKLTVLG	0.298
3F4 (antibody, V domains shown) VH: QVQLVESGGGVVQPGRSLRLSCAASGFIFRSYGMHWVRQAPGKGLEWVAVISYDGSNKYYADSVKGRFTISRDNSKNTLYLQMNSLRAEDTAVYYCARDHPVAGTSFDYWGQGTLVTVSS VL: QSVLTQPPSVSAAPGQKVTISCSGSSSNIGNNYVSWYQQLPGTAPKLLIYDNNNRPSGIPDRFSGSKSGTSATLGITGLQTGDEADYYCETWDSSLSAGVFGGGTKLTVLG	0.281

Continued by falling Kd, values first:

Kd [nM]	Binder
2.14	1A2 (antibody, V domains shown) VH: not shown VL: DIVMTQTPLSSPVTLGQPASISCRSSQSLVYSDGNTYLSWLQQRPGQPPRLLIYKISNRFSGVPDRFSGSGAGTDFTLKISRVEADDVGIYYCMQAIEFPWTFGQGTQVEIKR
0.578	1B5 (antibody, V domains shown) VH: QVQLVQSGAEVKKPGASVKVSCKASGYTFTAYYMHWVRQAPGQGLEWMGWINPNSGGTNSAQKFQGRVTMTRDTSIRTAYMELSWLRSDDTAVYYCARDATSGWFDFWGQGTPVTVSS VL: DIVMTQTPLTSPVTLGQPASISCRSSQSLVHYDGNTYLSWLQQRPGQPPRLLIYKISNRFSGVPDRFSGSGAGTDFTLKISRVEAEDVGIYYCMQALEFPWTFGQGTKVEIKR
0.422	8F9 (antibody, V domains shown) VH: QVQLVESGGGVVQPGRSLRLSCAASGFTFSSYGMHWVRQAPGKGLEWVAVIWYDGRNKYHADSVKGRFTISRDNSKNTLYLQMNSLRAEDTAVYYCARDHPVAGTSFDYWGQGTLVTVSS VL: QSVLTQPPSVSAAPGQKVTISCSGSSSNIGNNYVSWYQQLPGTAPKLLIYDNNKRPSGIPDRFSGSKSGTSATLGITGLQTGDEADYYCGTWDSSLSAVVFGGGTKLTVLG
